Substrate in this series: CCCCCCC1CO1
The experiment in a line: purified protein. Type of series: biochemical, Yarrowia lipolytica. As to conditions: 50 mM Tris-sulphate pH 8.0, 30 °C, 0.1-0.7 mM EO, 1 µg enzyme.

B1: Yleh (Yarrowia lipolytica CLIB122) (protein)
chain: MTDSLSLGYYQLFHKYAVLGDKRWHYLDIPPTSPSPALLGSGKTLMLCHGFPDSWYGWRKQIPILRNLGYRLLVPSQMGYTRSEAPLYPTPEPNEKGEYPELGLEDGTDALKDLYCYTGKFYAQCMDELLTQLGIPTVTIIGHDYGAYLGPKLYLYFPHRVEAIATSCWHYVPALKKFFAIPDFIKLAPSLSYQAYLIGDASKDFATREGSEPFLRQVFGGEGWGGSDSSVHMTEPEFQNYMTEFATGGRFLSYMVSTYKARRLTFEIEKQDFLDKGRTPESMQVDVPYLHVGAEQDMAFRPPMIKNLRKYVKPGRLDEVWIDASHWLMFEKADEFNHELVKWLDKIHGSQSKL
notes: recombinant full-length 354-residue protein (ORF 1065 bp), pET28a+ vector, E. coli BL21AI host, Ni-NTA plus size exclusion purification (His tag implied); distinct from bifunctional Ylehd of the same yeast
B1: the Michaelis-Menten constant (Km) is 430 ± 17 µM and the turnover number (kcat) turned out to be 3.3458 ± 0.2163 s⁻¹.

Usually Km stands for the substrate concentration at which the rate is half of its maximum. Broadly, the kcat is the number of substrate molecules converted per active site and unit of time at saturation.

(Values after PMC10371975, “Potential of Y. lipolytica epoxide hydrolase for efficient production of enantiopure (R)-1,2-octanediol” (AMB Express, 2023).)
